{
  "source": "patent US20160145598",
  "key": {"thrombin [1]": {"system": "thrombin"}, "thrombin [2]": {"molecular_target": "thrombin", "remark": "listed apart in the source"}},
  "note": "Where two headings read alike, the source gives them in different places.",
  "data": [
    {"molecule": "FX-WT (human factor X from an optimized nucleotide sequence, with C-terminal HPC4 tag)", "values": [
      {"measurement": "appearance of FXa after incubation with thrombin (Pefachrome FXa8595 hydrolysis at 405 nm)", "setting": "thrombin [1]", "result": "the plasma and WT FXs being negative since they do not have a thrombin recognition site"}
    ]},
    {"molecule": "plasma factor X (protein) chain 1: ANSFLEEMKKGHLERECMEETCSYEEAREVFEDSDKTNEFWNKYKDGDQCETSPCQNQGKCKDGLGEYTCTCLEGFEGKNCELFTRKLCSLDNGDCDQFCHEEQNSVVCSCARGYTLADNGKACIPTGPYPCGKQTLER chain 2: SVAQATSSSGEAPDSITWKPYDAADLDPTENPFDLLDFNQTQPERGDNNLTRIVGGQECKDGECPWQALLINEENEGFCGGTILSEFYILTAAHCLYQAKRFKVRVGDRNTEQEEGGEAVHEVEVVIKHNRFTKETYDFDIAVLRLKTPITFRMNVAPACLPERDWAESTLMTQKTGIVSGFGRTHEKGRQSTRLKMLEVPYVDRNSCKLSSSFIITQNMFCAGYDTKQEDACQGDSGGPHVTRFKDTYFVTGIVSWGEGCARKGKYGIYTKVTAFLKWIDRSMKTRGLPKAKSHAPEVITSSPLK", "values": [
      {"measurement": "appearance of FXa after incubation with thrombin (Pefachrome FXa8595 hydrolysis at 405 nm)", "setting": "thrombin [2]", "result": "the plasma and WT FXs being negative since they do not have a thrombin recognition site"}
    ]}
  ]
}
